For two substances, Kd results are on record in paper PMC4014808.

One series deals with L3MBTL2. Nature of the series: ELISA. The note with it: ELISA: 20 mM Tris-HCl pH 7.5, 150 mM NaCl, 20 mM KCl, 0.02% IGEPAL, 1 mM DTT, 1 h at room temperature, 50 uL of 50 nM biotinylated DNA per well.
The next series relates to MPG. Kind of series: ELISA. The note with it: all C outside primers replaced by 5-formylcytosine (dfCTP in PCR); ELISA: 20 mM Tris-HCl pH 7.5, 150 mM NaCl, 20 mM KCl, 0.02% IGEPAL, 1 mM DTT, 1 h at room temperature; 50 uL of 50 nM biotinylated DNA per well.

For Fgf15 promoter probe, 5fC, the Kd with L3MBTL2 (all C outside primers replaced by 5-formylcytosine (dfCTP in PCR)) was determined as 0.0371 µM; in the series on MPG it was 0.0134 µM.
The substance Fgf15 promoter probe, C returned a Kd in the series on L3MBTL2 of 0.0812 µM.
